Data published in patent US20240131147A1.

Molecular target: HIV-1 Clade B Env RHPA on pseudotyped virus (HIV-1)
Test: competition ELISA on coated RHPA pseudovirus; competitors: sera of MLA092- and MLA025-immunized mice diluted 1:400

## 10E8 broadly neutralizing human anti-HIV-1 Env monoclonal antibody
  concentration that completely inhibited the binding of sera: 2 µg/mL
